# Measurements reported in the nanobody polyreactivity screen of Harvey et al. (2022).
# Test: yeast display, Sf9 membrane polyspecificity reagent, FACS + sequencing; frameworks hold sequencing errors
# In short: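 Galactose induction of a Saccharomyces cerevisiae BJ5465 synthetic nanobody display library ran 36–48 hours. The cells were then stained for 1 hour at 4 °C with 10% biotinylated, detergent-solubilized Sf9 membrane reagent, pulled down on streptavidin microbeads and FACS-sorted into low and high (top ~1%) gates on expression and reagent-binding fluorescence. Labels for polyreactivity follow the gate of origin.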
row,Sequence,polyreactivity (PSR sort gate)
1,QVQLVESGGGLVQAGGSLRLSCAASGSTFGYNAMGWYRQAPGKERELVATITSTGGGTYYADSVKGRFTISRDNAKNTVYLQMNSLKPEDTAVYYCAAVYYSLDYVHGYPPHYDYWGQGTQVTVSS,low polyreactivity
2,QVQLVESGGGLVQAGGSLRLSCAASGSTFGYNAMGWYRQATGKERELVARITSSGGSTYYADSVKGRFTISRDNAKNTVYLQMNILKPEDTAVYYCAAGYLSGNYARYGYWGQGTQVTVSS,high polyreactivity
3,QVQLVESGGGLVQAGGSLRLSCAASGSTFGYNAMGWYRQSPGKERELVAAISYSGGSTYYADSVKGRFTISRDNAKNTVYLLMNSLKPEDTAVYYCAKETNRVGRYHWGQGTQVNVSS,low polyreactivity
4,QVQLVESGGGLVQAGGSLRLSCAASGSTFGYNTMGWYRQAPGKERELVAAITSGGRTYYADSVKGRFTISRDNAKNTVYLQMNILKPEDTAVYYCAAYYWWGYPENDYWGQGTQVTVSS,high polyreactivity
5,QVQLVESGGGLVQAGGSLRLSCAASGSTFGYYAMGWSRQAPGKERELVAAIRWSGGSTYADSVKGRFTISRDNAKNTVYLQMNSLKPEDTAVYYCAQYRWYGSVLGGYWGQGTQVTVSS,high polyreactivity
6,QVQLVESGGGLVQAGGSLRLSCAASGSTFGYYAMGWYRQAPGKERELVAAIRYSGGTTYYADSVKGRFTISRDNAKNTVYLQMNSLKPEDTAVYYCAAVYTSGYYYWGQGTQVTVSS,high polyreactivity
7,QVQLVESGGGLVQAGGSLRLSCAASGSTFGYYAMGWYRQAPGKERELVAAISWSGTRTYYADSVKGRFTISRDNAKNTVYLQMNSLKPEDTAVYYCAVRISRPREYYYWGQGTQVTVSS,high polyreactivity
8,QVQLVESGGGLVQAGGSLRLSCAASGSTFGYYAMGWYRQAPGKERELVAAISYRSGSTYYADSVKGRFTISRDNAKNTVYLQMNSLKPEDTAVYYCAAVIQGQQRYEYWGQGTQVTVSS,high polyreactivity
9,QVQLVESGGGLVQAGGSLRLSCAASGSTFGYYAMGWYRQAPGKERELVAAISYSGGSTYYADSVKGRFTISRDNAKNTVYLQMNSLKPEDTAVYYCAARLTRQMYYWGQGTQVTVSS,high polyreactivity
10,QVQLVESGGGLVQAGGSLRLSCAASGSTFGYYAMGWYRQAPGKERELVAAITRRSGRTYYADSVKGRFTISRDNAKNTVYLQMNSLKPEDTAVYYCNKVYPTYYYYRGGPTEYDYWGQGTQVTVSS,high polyreactivity
11,QVQLVESGGGLVQAGGSLRLSCAASGSTFGYYTMGWYSQAPGKEWELVAAITWSGGSTYYADSVKGRFTISRDNAKNTASLQMNSLKPEDTAVYYCNTDQDLVRSYDYWGQGTQVTVSS,low polyreactivity
12,QVQLVESGGGLVQAGGSLRLSCAASGSTFHAYAMGWYRQAPGKERELVAGISWSGGDTTYADSVKGRFTISGDNAKNTVYLQMNSLKPEDTAVYYCAAAGRDPDNYLILNYWGQGTQVTVSS,low polyreactivity
13,QVQLVESGGGLVQAGGSLRLSCAASGSTFHGYAMGWYRQEPGKERELVAAITSGDSTNYADSVKGRFTISRDNAKNTVYLQMNSLKPEDTAVYYCNAEGSSVLTGYWGYPPYWDTYDYWGQGTQVTVSS,low polyreactivity
14,QVQLVESGGGLVQAGGSLRLSCAASGSTFHNYAMGWYRQAPGKERELVAGISVRGGGTYYADSVKGRFTISRDNAKNTVYLQMNSLKPEDTAVYYCAKRSRYYYRYDYWGQGTQVTVSS,high polyreactivity
15,QVQLVESGGGLVQAGGSLRLSCAASGSTFHPNAMGWYRQAPVKERELVAAISRGGSTNYADSVKGRFTISRDNAKNTVYLQMISLKPEDSAVYYCAKDFFGISSDPVVMDYWGQGTQVTVSS,low polyreactivity
16,QVQLVESGGGLVQAGGSLRLSCAASGSTFHRNAMGWYRQAPGKERELVAAISFSGGRTYYADSVKGRFTISRDNAKNTVYLQMNSLKPEDTAVYYCAAVTASPGSYPDDYWGQGTQVTVSS,low polyreactivity
17,QVQLVESGGGLVQAGGSLRLSCAASGSTFHRNAMGWYRQAPGKERELVASISIGGSTNYADSVKGRYTISRDNAKNTVYLQMNSLKPEDTAVYYCATEPNPRRPRVDYDYWGQGTQVTVSS,low polyreactivity
18,QVQLVESGGGLVQAGGSLRLSCAASGSTFHRYAMGWYRQAPGKERELVATINLNTGSTYADSVKGRFTISRDNAKNTVYLQMNSLKPEDTAVYYCAAYGRWPFTWYNYWGQGTQVTVSS,low polyreactivity
19,QVQLVESGGGLVQAGGSLRLSCAASGSTFHRYAMGWYRQAPGKERQLVARINGSGGSTYYADSVKGRFTISRDNAKNTVYLQMNSLKPEDTAVYYCNARAVSVRASTKVPSGLYDFWGQGTQVTVSS,low polyreactivity
20,QVQLVESGGGLVQAGGSLRLSCAASGSTFHRYPMGWYRQAPGKERELVAAISVRTGSTYYADSVKGRFTISRDNAKNTDYLQINRLTPEDTAVYYCAVGKQINGKIYRYDYWGQGTQVTVSS,high polyreactivity
21,QVQLVESGGGLVQAGGSLRLSCAASGSTFHSNAMGWYRQAPGKEREVVATISFGGGSKYYADSVKGRFTISRDNAKNTVYLQMNSLKPEDTAVYYCARDQTFGPCPYVWYYYPGYDYWGQGTQVTVSS,low polyreactivity
22,QVQLVESGGGLVQAGGSLRLSCAASGSTFHSYAMGWYRQAPGKERELVAGITWGGGTYYADSVKGRFTISRDNAKNTVYLQMNSLKPEDTAVYYCAALSYVGSNVYTGAPAAPYDYWGQGTQVTVSS,low polyreactivity

row,Sequence,polyreactivity (PSR sort gate)
1,QVQLVESGGGLVQAGGSLRLSCAASGSTFHTNAMGWYRQAPGKERELVDAISRSGTSTYYADSVKGRFTISRDNAKNSVYCQMNSLNPEDTAVYYCAAYGPRVNGEIGREYYYWGQGTQVTVSS,low polyreactivity
2,QVQLVESGGGLVQAGGSLRLSCAASGSTFHTYGMGWYRQAPGKERELVSAIDLSDGSTYYADSVKGRFTISRDNAKNTVYLQMNSLKPEDTAVYYCNADYFPKPYRPDDYWGQGTQVTVSS,low polyreactivity
3,QVQLVESGGGLVQAGGSLRLSCAASGSTFHVYAMGWYRQAPGKERELVAGITSSGYSTYYADSVKGRFTISRDNAKNTVYLKMNSLKPEETAVYYCNADIRGPYYYHRYDYWGQGTLVTVSS,low polyreactivity
4,QVQLVESGGGLVQAGGSLRLSCAASGSTFHWYDMGWYRPAPGKERELVAGINSSGDGTYYADSVKGRFTISRDNAKNTVYLQMNSLKPEDTAVYYCAAPWWYYGVPYQTNKYDYWGQGTQVTVSS,low polyreactivity
5,QVQLVESGGGLVQAGGSLRLSCAASGSTFHYNAMGWYRQAPGKERELVAAIDNGGRTNYADSVKGRFTISRDNAKNTVYLQMNSLKPEDPAVYYCATRGYFWSFTTSYYHYYYWGQGTQVTVSS,high polyreactivity
6,QVQLVESGGGLVQAGGSLRLSCAASGSTFIANAMGWYRQAPGKERELVAAISASGDSTYYADSVKGRFTISRDNAKNTVYLQMNSLKPEDTAVYYCAADTSVHRHDYWGQGTQVTVSS,low polyreactivity
7,QVQLVESGGGLVQAGGSLRLSCAASGSTFIANAMGWYSQAPGKERELVAGITRGGSTYYADSVKGRFTISRDNAKHTVYLQMNSLNPEDTAVYYCATDLRSYYYQWTYYHWGQATQVTVSS,low polyreactivity
8,QVQLVESGGGLVQAGGSLRLSCAASGSTFIDYAMGWYRQAHGKERELVAGISSGDSTDYADSVKGRFTISRDNAKNTVYLQMNSLKPEDTAVYYCNADWNPTERWFYWYTPLGYDYWGQGTQVTVSS,low polyreactivity
9,QVQLVESGGGLVQAGGSLRLSCAASGSTFIFNAMGWYRQAPGKERELVAAISWRLGRTYYADSVKGRFTISRDNAKKTVYLQMNSLKPEDTAVYYCARDYSRHKGDYWGQGTQVTVSS,low polyreactivity
10,QVQLVESGGGLVQAGGSLRLSCAASGSTFIFYAMGWYRQAPGKERELVAAISSGGITNYADSVKGRFTISRDNAKNTVYLQMNSLKPEDTAVYYCAKRKGPRWSRQYRYPYYSWGQGTQVTVSS,high polyreactivity
11,QVQLVESGGGLVQAGGSLRLSCAASGSTFIIYAMGWYRQEPGKEREFVATITGRGGRTYYAVSVKGRFTISRDNAKNTVYLQMNSLKPEDTAVYYCAKGLGSGQEIYGYDYGGQGTQVTVSS,high polyreactivity
12,QVQLVESGGGLVQAGGSLRLSCAASGSTFILNAMGWYRQAPGKERELVAAISRSGGNTYYADSVKGRFTISRDIAKNTVYLQMNSLKPEDTAVYYCAATRRSHYYYWGQGTQVTVSS,high polyreactivity
13,QVQLVESGGGLVQAGGSLRLSCAASGSTFIPNAMGWYRQAPGKERELVAAISTGGSTNYADSVKGRFTISRDNAKNTVYLQMNSLKPEDTAVYYCNDRRGYFNPGRRFYYWGQGTQVTVSS,low polyreactivity
14,QVQLVESGGGLVQAGGSLRLSCAASGSTFIVKAMGWYRHAPGKERELVAAITEDGDTTYYADSVKGRFTISRDNAKKTVYLQMNSLKPEDTAVYYCAAETYYLDDYWGQGTQVTVSS,high polyreactivity
15,QVQLVESGGGLVQAGGSLRLSCAASGSTFIVNAMGWYRQAPGKERELVAAIRRGTRTNYADSVKGRFTISRDNAKNTVYLQMNSLKPEDTAVYYCAVRGSYRGWYDYWGQGTQVTVSS,high polyreactivity
16,QVQLVESGGGLVQAGGSLRLSCAASGSTFIVYAMGWYRQAPGKERELVAAISLDGGSTYYADSVKGRFTISRDNAKNTVYLQMNSLKPEDSAVYYCNADYYANSITYDSWGQGSQVTVSS,low polyreactivity
17,QVQLVESGGGLVQAGGSLRLSCAASGSTFIWYAMGWYRQAPGKERELVAAINRSGGSTYYADSVKGRFTISRDNAKNTVYLQMNSLKPEDTAVYYCAAQGGGYRGLKYYYWGQGTQVTVSS,high polyreactivity
18,QVQLVESGGGLVQAGGSLRLSCAASGSTFIWYARGWYRQAPGKERELVAAISRSGGSTYYADSVKGRFTISRDNAKNTVYLQMNSLKPEDTAVYYCNTYPTYQYYYWGQGTQVTVSS,high polyreactivity
19,QVQLVESGGGLVQAGGSLRLSCAASGSTFIYYAMGWYRKAPGKEREFVAAISYRGGSTYYADSVKGRFTISRDNAKNTVYLQMNSLKPEDTAVYYCAASYRKWNDYWGQGTQVTVSS,high polyreactivity
20,QVQLVESGGGLVQAGGSLRLSCAASGSTFIYYAMVWYRQAPGKERELVASLSRSGGSTYYADSVKGRFTISRDNAKNTVYLQMNSLKPEDTAVYYCARAYRSSFNYWGQGTQVTVSS,high polyreactivity
21,QVQLVESGGGLVQAGGSLRLSCAASGSTFKAYAMGWYRQAPGKERELVAAITNSDGDTYYADSVKGRFTISRDNAKNTVYLLMNSLKPEDTAVYYFNADDALRQTSDYNYWGQGTQVTVSS,low polyreactivity
